A short description of this series: label from the status in PepcDB records.
Turning to “MERIIQQTDYDALSCKLAAISVGYLPSSGLQRLSVDLSKKYTEWHRSYLITLKKFSRRAFGKVDKAMRSSFPVMNYGTYLRTVGIDAAILEFLVANEKVQVVNLGCGSDLRMLPLLQMFPHLAYVDIDYNESVELKNSILRESEILRISLGLSKEDTAKSPFLIDQGRYKLAACDLNDITETTRLLDVCTKREIPTIVISECLLCYMHNNESQLLINTIMSKFSHGLWISYDPIGGSQPNDRFGAIMQSNLKESRNLEMPTLMTYNSKEKYASRWSAAPNVIVNDMWEIFNAQIPESERKRLRSLQFLDELEELKVMQTHYILMKAQW”, the protein production result was “not failed”.

For the sequence “MERITDVPESPAQSADPARVNDYDSFAEAYSAETENNLVNAYYARPAMLALAGDVAGRRILDAGCGSGPLSAALRDRGAVVTGIDASAGMLALARRRLGDDVALHVVDLSDRLPFDDGAFDDVVASLVLHYLEDWGPTLAELRRVLRPGGRLIASVDHPFVAYTFQDPRPDYFATTSYTFDWTFNGQSVPMKFWRKPLHAMTDAFTTAGFRLSVISEPQPDPAAIELFPDAFHDLSTKTCFLFFVVEVPPSATGSDDY”, the protein production result is “failed”.

As for “MERIVMPANYVHTRTTPFWTKETAPASIWRRHLDAGTRQGVYPRLCVMQGTIRYYGYADETSPEPVETLTIEAGQFGVFPPEKWHRIEALSDDTLFNVDFYVDPKILIEGLEHHHHHH”, the protein production result was “failed”.

As to “MERNRRRNADNNTVVDQGGVFFDGCDTDEAFGPSSRDVPFQHDSVKSKPNLYGGG”, the protein production entry is recorded as “not failed”.

“MERRLAAILIADVVGYSRLSQIDEEGTRARFQADQNDVFEPAIERHHGRLVKTMGDGLLVEFQSVVDALRCAVEVQQLKATQSAASLPEHRLEFRIGINLGDIIVEGEDIQGDGVNIADRIQALAEPGGIAISGTTYDQVKSKIPVGFASLGEQRLKSITEPIRVYRILLDPTAAGKTLKTRRRLPRRRLVAGIAAAIVVLALAGAALWWQPWMPAKPPGPGERFAYPLPDRPSVAVLPFINVSGDSEHDHLAEGLTDDLITELSKVSGLFVIARHSVFAIQGSVGKIQDVATELGVQYVLEGTLQRAGPRLRINVKLIDAVSGLSLWAERYDRQYADLFAVQDDVIGKIISALSVKLSARERDQLARIPTENLEAYDFYMRAEQEGFILRDVDTYRRTLSFYQKAIDLDPGFANAHAGIARVAVDVWRNDYNYLWSAAVARKIAYDAAGQALKLDPNNARAHTVLALLQWVDGRETEAKNSANMAVAMEPNDAEAAANLALILVHTGSSGQAITEMEKALRLDPSPASSFQLLAGIVFYTAGDDQRAISLIEPTLDSLPKVEPAREYLAAAYADQGNETKAAAETAKLLELFPEGNLTYYGYLYDYWRDGDLQRHLAALRKAGIPEWPFGFTGSQADRLGEADLRNLVDGKSWTGKHKNGTDFTQYFDRAGNTAYRSANTNITGIVEVRGDSLCEKFEGYFLDRMVCGYVYRNTSGEQRDRPYVHVTPRALTFFSPTP”: the protein production entry is “failed”.

As to “MERSIGFGQALKLFWKNYVNFKGRSRRSEYWFMALWNIIFMMPALILYIIGLIMTVSGAASSSEELVAIGVILLFLSICYALIYSLATLIPGWALLIRRFHDTGRTMLMPLIYLGVIVISYPVLFVVNIQDPEYNNPVYIIFFAIIFLVYIALGIYMLVICCLDSERKTNKYGASHKYGNHIKSSTNTYANQDAPIHEDTNVKHVNSEENAFSEEVNTSDENATKKDDNFKY”, the protein production entry is listed as “failed”.

Consider “MERTLSDSQIRYIKARERRNLRGAQAFICLFLSLFVLILLQGVWLLISPRLACALLVPWAIFLWWWVFHRLKGQQSEVAARTQWLQGQFSATWVSSHRNGHFSYSFGDYPIAACCRLNNLFNEKRLDLHTRYRVEAALLTCSQTASHSYYLFGDTLVPVTRAPETDEQPGS”, for which the protein production entry is “failed”.

Consider “MERVGTPEEERQAGPVLPTSLESDSSKRTSWGFLITGVVGGALLTVYAVATPFITPALRKVCLPFVPATSKQVENVVRMLRHRRGPLVDIGSGDGRIVIAAAKEGFPAVGYELNPWLVWYSRYRAWRAGVHGSAKFYISDLWKVTFAQYSNVVIFGVPQMMPQLEKKLELELEDGARVIACRFPFPRWTPDHTTGEGIDTVWAYDMSAQRGRGGRPNQEWVGQKNLSETAGLQASSSETRSKLLDVE”, for which the protein production result is “failed”.

As for “MESDSEMVPFPQLPMPIENNYRACTIPYRFPSDDPKKATPNEISWINVFANSIPSFKKRAESDITVPDAPARAEKFAERYAGILEDLKKDPESHGGPPDGILLCRLREQVLRELGFRDIFKKVKDEENAKAISLFPQVVSLSDAIEDDGKRLENLVRGIFAGNIFDLAVKTWFHDHGSLMTWKTSKPNGSISLGRRSLICFALPFNASFRLQCLFSELKYTLNCSSSSSFPFKVVLAANELPSINDITCTELTEILSQLKDENGQLLGVDTSKLLIANSGNDLPVIDLSRVSQELAYLSSDADLVIVEGMGRGIETNLYAQFKCDSLKIGMVKHLEVAEFLGGRLYDCVFKFNEVQS”, the protein production result was “not failed”.

For the sequence “MESIWRIATGQDPSREDYEGIEFWSNPERSGWLTKQGDYIKTWRRRWFVLKRGKLLWFKDQAAAGIRGSTPRGVISVGDCLTVKGAEDVVNKPFAFELSSGSYTMFFIADNEKEKEEWINSIGRSIVQHSRSVTDSEVLDYDHRR”, the protein production entry is reported as “failed”.

For “MESKTNYTIVGLIVLILTAGLLSAGLWLSVGFNQKEYTSYTVYLKESVSGLSVESPVKFNGVQVGYVKEIKLNKNDPRQVELLLNIEKSTPITTSTSATLITQGITGVTYVGLSAGSSELTPLRKMPGEPYPVIPSKPSLLNQLDAVLKEVAENVGAVSEKAQLIFNEENADNVRKSLANLERITEIIADKGQTIDSSLNNLDVFVANMANASKQFPQLIKDLKTGISKFKSLADNMSAAGKDVSKTMIAGKNTIDQISQQAIPPAVILLRRLNAISANLEKVSNEMRQNPSVIIRGTKAPKLGPGELEHHHHHH”, the protein production result is reported as “failed”.

Take “MESLDSVSIAILLGSVLVMAGILSSLLALRFGAPLLLVFLVIGILAGESGPGGINFNDLGTTYLVGSVALALILFDGGLKTRFSSIKAVLAPSMGLATVGVLLTALVTAPVARYALDLSWVEALLASAVVASTDAAAVFLLVHAQGLRLRPRVGATLEVESGTNDPFAVFLTLMLVELITRGESSILHVLIEFVREAALGAVIGVVGGRVVVMALNRVALPQGLHAPFVTTAALVVFGAAQMSHASGFLAVYLAGMIIGNQPTRAHNSVVAFLDAATWLAQIVMFVLLGLLVSPQRLMGSIGPAVVIALALMLVARPLAVFICLAPFRFNWRERLFIAWVGLRGAVAIFLASIPMLVGLSKAYLYFDVAFVVVLISLMLQGWTLAPAARKLLVALPRSDRGPRRIELDLPGQLEQQLVGYAVRPKSLYLKRGLIPSWSKPTLVIRDQRILTPEEAEPVAPGDYVYLLAPPEKAAALDRFFVDMPPSTAPDPHLLGDFIVPGETSLGDLAAAYGISVPPGQEALTLADYFDIYLDQAPMVGATLPLDSIVLVARSLGGGRVNVVGLRLPEEEDEAPPPTRLAKVRTKLSEVWSLLAGV”: the protein production result is recorded as “failed”.

On to “MESMSMNHRVVRHCHNKKLQQSRYSPYSKENIISTIEKEMQKDEAIRLGVELSLFVAETMVLLSDNLRSMLLFCLWVLTNAECTYFTDPVVGRLHCVMLYVLETYIKPKNGVYLADVKSNQWEVFVKSCKSFVFGIRELDRIVLILGKRESSSCEVVKTSDFEHCNQELKKLEETLRSAKDVSEANGFAREVIKSNILCLWKSLFETSQPKVINLKNRTLDMFKPLLNQAREITCSSLIASLHI”, for which the protein production result is given as “failed”.

Turning to “MESSEEDDEYPFIESITPQSKIDSVHQSLTEKGIRKLCCELMDLKDAVENMCGDMRTKYLAFLRISEEAVEMEHELVELRKHISSQGILVQDLMAGVCREMDDWNRLPGDVHDAEVEEDPLPNEVTDPKSEFLEKIDLLLAEHKVDEALEAMDAEERSSPDLKGSVEMSSYKSAFMERKAVLEDQLLRIAKQPSICVAELKHALIGLIRLGKGPSAHQLLLKFYATSLRRRIEAFLPSCLTCPNTFPATLSKLVFSNISVATKESAAMFGDDDNPAYSNKVVQWAEREVEYLVRLVKENASPSETASALRAASICLQDCLNYCKVLEPQGLFLSKLFLVLFRPYVEEVLELNFRRARRVIFDLNETDEGLESPSDFVTILSEFAIASDTMMTDCSIRFMQIVQDILEQLTHLVVLHFGESVLTRILQLYDKYIDFLIKALPGHSDEDGLPELQDNTVLARAETDSEQLALLGAAFTILDELLPRSLVKVWKLQIENGGGEGENSAALNSSAAPELKEWKRHMVQAFDKLRNYFCLQFVLSFIYSREGLTRLDALIYLTETPDDLHLPSLPFQALFSKLQQLAIIAGDVLLGKEKLQKILLARLTETVIIWLSNEQEFWSAFEDESNPLQPSGLQQLILDMNFTVEIARFAGYPFKVVQNHASVVINRAINIFSERGINPQSSLPKTEWFTEAAKSAINRLLMGSEDASEPEEYECEEEEEDDHHIVLPEMDDDSDSEDTSSLSTVDSFESFASASMADLESPSFTDSES”, the protein production result is “failed”.

Turning to “MESSPLISAGLPIALFIIMIGIGMTLTLRDFRQVAVYPKGMIVGTFAQILLMPVVAFGLAWLFGVSPAIAVGLVIIAACPGGTTSNLFVLLARGNIALSIVLTVSASLITILTLPLFTNMALQHFMGTEESISLPVGKTIAMLVVIVLLPVAIGMLVRTRKPELARKAESLVSIFGGIVLAVLVVALLYGVRDQMWDLLKQAGPSTIALNVAGIALGLLAGRVAGLTQRESLAVAVELGVKNGTIGLMVTLTLLESSTMSIPAAVYGVLMFPIGFLLAMYGRKVIPKSNVAHAAGEA”, the protein production result is “failed”.

On to “MESVAFIQWCLEHLNYWTITLLMTIESSFIPFPSEVIIPPAAYKAAVNDELNIYLVVLFATIGADIGALINYYLAKWLGRPIIYKFANSRIGHMCLIDEAKVQHAESYFDKHGALSTFIGRLIPAVRQLISIPAGLARMKMHTFLLYTTIGAGLWNTILAVIGYYLSTVPGIESEEQLIAKVTEYSHEIGYCFIAIGIFIVGFLVYKGMKKK”, for which the protein production result is reported as “failed”.

For the sequence “MESVTFEDVAVEFIQEWALLDSARRSLCKYRMLDQCRTLASRGTPPCKPSCVSQLGQRAEPKATERGILRATGVAWESQLKPEELPSMQDLLEEASSRDMQMGPGLFLRMQLVPSIEERETPLTREDRPALQEPPWSLGCTLPLLSLLLPSCPEPPLVLLDSSSAPDRHLGSTLDTEARGIP”, the protein production result is “failed”.

Turning to “METAITRMLGIRYPIVAAPMFLVSNAPLLQAVAEAGGIGVIPSLNFRTHQAFREFLESFPEGVPFGVNLILKGNPRLEEDLEAVVERRVPLVVTSLGDPTRVVERVKAYGGVVWCDVVGLRHGRKAVEAGADALVAVACGAGGHAGRVSPFVLGPWLREELGVPVLIAGGIATGRQVLAALALGDGVYIGTRFIATLESGAPLEYKEALLRAQPEDIEYTPEVTGVPANFLRESLERFRQGGGKAWKEVYSAGHGVAFIREIPSAKEVVARLVEEYRAAKAGLP”, the protein production entry is recorded as “failed”.

Regarding “METALVSIIMPMYNAGKFLSKSIESVLEQTYQNWELLLIDDGSKDDSIDIALAFMEKDSRIFLLKNEQNMGIAKTRNKGIEASKGQYIAFLDSDDLWLPNKLEVQVKWMEEKKLLFTCSSYFVCNENGNITHERNFSEGPQTYQDLLKTNTIGCLTVVVESNLLKRHLMPDLKHEDYATWLNILKEINTVYFINEKLAIYRKLTTSTSSNKWNTISWVWKILRQNEQFSVIKSSFYLMRFLFYTTFKYAKNELEHHHHHH”, the protein production result is recorded as “not failed”.

In the case of “METIKIGVVGLGTVGTGVVKMLQAHQEKISEITGRKLELACVVVHNLKKHEQVDLGDVQMTDQIATLLDDPSIQIMVEVMGSIHPAKEYITQALQAGKHVVTANKDLIAQYGRELVQIARENHRDLFYEASVAGGIPILRTIDNSFAADRIQRVMGIVNGTTNYIMTQMLTKHWSYDQALSSAQDLGFAESDPTNDVEGLDAAFKMIILTQFAFGMSLSLDHVQVQGITKISPEDIAEAHQLGYTIKLLGIAEEIDDRIAVSVGPVLVSDQHPLATVQNENNAVMVTGTAVGNTMFYGPGAGELPTANSVLSDITTVAKNIALNTTGNTFNSYRQETVLATPEDVVYPHFIALKMRDVPGMMMKLTAIMTRAEVSFSRIIQNQLGDGNARVVIITHAMNDQQLADITREIGEQENMQLLASYKVLKNA”, the protein production result is given as “failed”.

For the origin of these results see a protein production outcome set (Wang et al. 2014).
